Source: patent US20230069055A1 (BOLT BIOTHERAPEUTICS, published 2023)

biological target: PD-L1 on CHO-K1/PD-L1/alphaAPC stimulator cells (UniProt Q9NZQ7 19-290, limits assumed); experiment: cell-based or functional assay
Sequence (Q9NZQ7 19-290 limits assumed): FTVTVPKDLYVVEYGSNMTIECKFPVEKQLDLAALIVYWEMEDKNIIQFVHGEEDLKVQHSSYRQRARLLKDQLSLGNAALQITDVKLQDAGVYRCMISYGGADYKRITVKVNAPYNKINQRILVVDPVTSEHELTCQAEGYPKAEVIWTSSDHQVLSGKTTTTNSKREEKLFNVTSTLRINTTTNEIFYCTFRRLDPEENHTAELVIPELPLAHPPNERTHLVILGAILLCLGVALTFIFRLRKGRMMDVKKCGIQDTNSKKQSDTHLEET

| Binder | PD-L1/PD-1 blockade EC50 (nM) | PD-L1/PD-1 blockade EC50 (ng/ml) [ng/mL] |
| --- | --- | --- |
| PD-L1 binding agent 16 (antibody, V domains shown) VH: QVQLVQSGAEVKKPGASVKVSCKASGYTLPNYIHWVRQAPGQGLEWMGWIHPRSGATGYAPKFQGRVTMTRDTSTSTVYMELSSLRSEDTAVYYCARDSVFGLDYWGQGTLVTVSS VL: not shown | 1.25 | 181 |
| PD-L1 binding agent 7 (antibody, V domains shown) VH: QVQLVQSGAEVKKPGASVKVSCKASGYTFTSYYMHWVRQAPGQGLEWMGWMNPNSGNTGYAQKFQGRVTMTRDTSTSTVYMELSSLRSEDTAVYYCARDDWGGDWFDPWGQGTLVTVSS VL: DIQMTQSPSSLSASVGDRVTITCQASQDISNHLNWYQQKPGKAPKLLIYGASNLQRGVPSRFSGSGSGTDFTLTISSLQPEDFATYYCQQSYSTPITFGQGTRLEIK | 0.73 | 106 |
| PD-L1 binding agent 1 (antibody, V domains shown) VH: QVQLVQSGAEVKKPGASVKVSCKASGYTFSSDYMHWVRQAPGQGLEWMGWMSPYNGITGYAQKFQGRVTMTRDTSTSTVYMELSSLRSEDTAVYYCARDRFSGSYDYWGQGTLVTVSS VL: not shown | 0.74 | 106 |
| PD-L1 binding agent 4 (antibody, V domains shown) VH: QVQLVQSGAEVKKPGSSVKVSCKASGYTFTGYYIHWVRQAPGQGLEWMGGIIPIFGTASYAQKFQGRVTITADESTSTAYMELSSLRSEDTAVYYCARDGRFWSGYPDYWGQGTLVTVSS VL: DIQMTQSPSSLSASVGDRVTITCRASQGISNYLAWYQQKPGKAPKLLIYRASNLESGVPSRFSGSGSGTDFTLTISSLQPEDFATYYCQQSYSTPLTFGGGTKVEIK | 0.85 | 124 |
| PD-L1 binding agent 5 (antibody, V domains shown) VH: QVQLVQSGAEVKKPGASVKVSCKASGYTFSTHYMHWVRQAPGQGLEWMGWMNPNSGHAGSAQKFQGRVTMTRDTSTSTVYMELSSLRSEDTAVYYCARESIAVAGYDYWGQGTLVTVSS VL: DIQMTQSPSSLSASVGDRVTITCRASQSISSWLAWYQQKPGKAPKLLIYAASTLQRGVPSRFSGSGSGTDFTLTISSLQPEDFATYYCQQSYSTPYTFGQGTKLEIK | 0.37 | 54.3 |
| PD-L1 binding agent 6 (antibody, V domains shown) VH: QVQLVQSGAEVKKPGASVKVSCKASGYTFTSHDINWVRQAPGQGLEWMGWMNPNSGNTGYAQKFQGRVTMTRDTSTSTVYMELSSLRSEDTAVYYCARDRWYMGSADYWGQGTLVTVSS VL: DIQMTQSPSSLSASVGDRVTITCRASQSISTWLAWYQQKPGKAPKLLIYAASTLQSGVPSRFSGSGSGTDFTLTISSLQPEDFATYYCQQSYSTPFTFGQGTKVEIK | 0.73 | 106 |
| PD-L1 binding agent 14 (antibody, V domains shown) VH: QVQLVQSGAEVKKPGASVKVSCKASGYNFSAYYVHWVRQAPGQGLEWMGWMNPNRGITDSAQKFQGRVTMTRDTSTSTVYMELSSLRSEDTAVYYCAREAYVAAFDIWGQGTTVTVSS VL: DIQMTQSPSSLSASVGDRVTITCRASQGISSWLAWYQQKPGKAPKLLIYAASSLQSGVPSRFSGSGSGTDFTLTISSLQPEDFATYYCQQSYSTPLTFGGGTKVEIK | 1.15 | 166 |
| PD-L1 binding agent 10 (antibody, V domains shown) VH: QVQLVQSGAEVKKPGASVKVSCKASGYTFTGYYMHWVRQAPGQGLEWMGWMNPNGGTTGYAQNFQGRVTMTRDTSTSTVYMELSSLRSEDTAVYYCAREGFGPNAFDIWGQGTTVTVSS VL: DIQMTQSPSSLSASVGDRVTITCRASQSISSWLAWYQQKPGKAPKLLIYAASNLQSGVPSRFSGSGSGTDFTLTISSLQPEDFATYYCQQYYSTPYTFGQGTKVEIK | 0.47 | 67.4 |
| PD-L1 binding agent 11 (antibody, V domains shown) VH: QVQLVQSGAEVKKPGASVKVSCKASGYTFTGYYMHWVRQAPGQGLEWMGWMNPNSGNTGYAQKFQGRVTMTRDTSTSTVYMELSSLRSEDTAVYYCARDSWYGDWFDPWGQGTLVTVSS VL: DIQMTQSPSSLSASVGDRVTITCRASQSVGSWLAWYQQKPGKAPKLLIYGASSLQSGVPSRFSGSGSGTDFTLTISSLQPEDFATYYCQQSYSTPLTFGGGTKVEIK | 0.37 | 53.6 |
| PD-L1 binding agent 9 (antibody, V domains shown) VH: QVQLVQSGAEVKEPGASVKVSCKASGYTFTDHYLHWVRQAPGQGLEWMGWMNPNIGNTGYAQKFQGRVTMTRDTSTSTVYMELSSLRSEDTAVYYCAREPLQLGGFDYWGQGTLVTVSS VL: DIQMTQSPSSLSASVGDRVTITCRASESISSWLAWYQQKPGKAPKLLIYAASSLQSGVPSRFSGSGSGTDFTLTISSLQPEDFATYYCQQSYSTPLTFGQGTKLEIK | 0.67 | 97.3 |
| PD-L1 binding agent 15 (antibody, V domains shown) VH: QVQLVQSGAEVKKPGASVKVSCKASGYTFTRHYVHWVRQAPGQGLEWMGWMNPNSGSAGYAQKFQGRVTMTRDTSTSTVYMELSSLRSEDTAVYYCARERGYNAFDYWGQGTLVTVSS VL: EIVMTQSPATLSVSPGERATLSCRASQSLSSSYLAWYQQKPGQAPRLLIYGASTRATGIPARFSGSGSGTEFTLTISSLQSEDFAVYYCHQYFTTPLTFGQGTRLEIK | 1.13 | 164 |
| PD-L1 binding agent 3 (antibody, V domains shown) VH: QVQLVQSGAEVKKPGASVKVSCKASGYTFSSYYMHWVRQAPGQGLEWMGWMTTNSGITGYAQKFQGRVTMTRDTSTSTVYMELSSLRSEDTAVYYCAREGYSSGLDYWGQGTLVTVSS VL: not shown | 0.33 | 47.3 |

biological target: T1, human PD-L1 (hPD-L1), endogenous on JIMT-1 cells (human, UniProt Q9NZQ7 19-290); experiment: flow cytometry, JIMT-1 cells with endogenous hPD-L1, fluorescent anti-human IgG Fc secondary, geometric MFI
T1 construct: The assay used endogenous hPD-L1 on JIMT-1 cells; also called programmed death-ligand 1; CD274
Experimental: Diluted binding agents were applied to JIMT-1 cells (˜1×10⁵-2×10⁵ per well) and incubated at 4° C. […] After unbound secondary antibody was washed out, cells were resuspended in FACS buffer plus 2% formaldehyde and analyzed by flow cytometry.

T1 sequence (Q9NZQ7 19-290 limits assumed): as the sequence (Q9NZQ7 19-290 limits assumed) above

| Binder | binding result |
| --- | --- |
| 48 (antibody, V domains shown) VH: QVQLVQSGAEVKKPGASVKVSCKASGYTFTSYYMHWVRQAPGQGLEWMGWINPNSGNTGYAQKFQGRVTMTRDTSTSTVYMELSSLRSEDTAVYYCARDDWGGDWFDYWGQGTLVTVSS VL: DIQMTQSPSSLSASVGDRVTITCQASQDISNHLNWYQQKPGKAPKLLIYGASNLQRGVPSRFSGSGSGTDFTLTISSLQPEDFATYYCQQSYSTPITFGQGTRLEIK | binds |
| 12 (antibody, V domains shown) VH: QVQLVQSGAEVKKPGASVKVSCKASGYTFTGYYMHWMRQAPGQGLEWIGWMSPYNGITGYAQKFQGRVTMTRDTSTSTVYMELSSLRSEDTAVYYCAREVIEVGMDVWGQGTTVTVSS VL: DIQMTQSPSSLSASVGDRVTITCRASQSISSWLAWYQQKPGKAPKLLIYAASHLQSGVPSRFSGSGSGTDFTLTISSLQPEDFATYYCQQSYSTPYTFGQGTRLEIK | binds |
| 13 (antibody, V domains shown) VH: QVQLVQSGAEVKKPGASVKVSCKASGYTFTNYYMHWVRQAPGQGLEWMGWMSPSSGITGYAQKFQGRVTMTRDTSTSTVYMELSSLRSEDTAVYYCAREAWFGELSTWGQGTLVTVSS VL: DIQMTQSPSSLSASVGDRVTITCRASQNISNFLNWYQQKPGKAPKLLIYAASSLQSGVPSRFSGSGSGTDFTLTISSLQPEDFATYYCQQSYSLPYTFGQGTKVEIK | binds |
| 46 (antibody, V domains shown) VH: QVQLVQSGAEVKKPGASVKVSCKASGYTFSTHYMHWVRQAPGQGLEWMGWINPNSGHAGSAQKFQGRVTMTRDTSTSTVYMELSSLRSEDTAVYYCARESIAVAGYDYWGQGTLVTVSS VL: DIQMTQSPSSLSASVGDRVTITCRASQSISSWLAWYQQKPGKAPKLLIYAASTLQRGVPSRFSGSGSGTDFTLTISSLQPEDFATYYCQQSYSTPYTFGQGTKLEIK | binds |
| 49 (antibody, V domains shown) VH: QVQLVQSGAEVKKPGASVKVSCKASGYTFTDHYLHWVRQAPGQGLEWMGWINPNIGNTGYAQKFQGRVTMTRDTSTSTVYMELSSLRSEDTAVYYCAREPLQLGGFDYWGQGTLVTVSS VL: DIQMTQSPSSLSASVGDRVTITCRASESISSWLAWYQQKPGKAPKLLIYAASSLQSGVPSRFSGSGSGTDFTLTISSLQPEDFATYYCQQSYSTPLTFGQGTKLEIK | binds |
| 47 (antibody, V domains shown) VH: QVQLVQSGAEVKKPGASVKVSCKASGYTFTGYYMHWVRQAPGQGLEWMGWINPNSGTTGYAQNFQGRVTMTRDTSTSTVYMELSSLRSEDTAVYYCAREGFGPNAFDIWGQGTTVTVSS VL: DIQMTQSPSSLSASVGDRVTITCRASQSISSWLAWYQQKPGKAPKLLIYAASNLQSGVPSRFSGSGSGTDFTLTISSLQPEDFATYYCQQYYSTPYTFGQGTKVEIK | binds |
| 45 (antibody, V domains shown) VH: QVQLVQSGAEVKKPGASVKVSCKASGYTFSSYYMHWVRQAPGQGLEWMGWITTNSGITGYAQKFQGRVTMTRDTSTSTVYMELSSLRSEDTAVYYCAREGYSSGLDYWGQGTLVTVSS VL: not shown | binds |
